From the nanobody polyreactivity screen of Harvey et al. (2022)

Assay: yeast display, Sf9 membrane polyspecificity reagent, FACS + sequencing; frameworks hold sequencing errors
In short: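 After 36–48 hours of galactose induction, yeast (Saccharomyces cerevisiae BJ5465) displaying a synthetic nanobody library were stained at 4 °C for 1 hour with 10% biotinylated, detergent-solubilized Sf9 membrane reagent. Streptavidin microbeads enriched the stained cells before FACS sorting into low and high (top ~1%) gates on anti-HA and streptavidin fluorescence. Each clone's polyreactivity label reflects its gate of origin.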

Row | Sequence | polyreactivity (PSR sort gate)
1 | QVHHVESAGGLVQAGGILRLSCAASGRTFGANAMGWYRQPPVKERELVAAISKSGGRTYYADSVTGRFTISRDNAKNTVYLQMNSLKPEDTEVYYCNKVMCVSQAGGFDYWGQGTQVTVSS | high polyreactivity
2 | QVQLVETGVGLVQAGGSLRLSCAASGRTFTTYAMGWYRQAPGKERELVAAITGSGGSTYYADSVNGRFTISRDNAKNTVYLQMNSLKPEDTAVYDCAKGYHQYAGFYYWGQGTQVTVSS | high polyreactivity
3 | QLQLVESGGRLVQAGGSLRLSCAASGFIFRWNAMGCYIQAPGKASEFVAAITSSTGSTYYAVSVKGRFTISRDNAKNTVYLQMNSLKPEDTAVYDCAADKRGTVYLSSFWMDYWGQGTQVTVSS | low polyreactivity
4 | QVQLVESGGGLVQAGGSLRLSCAASGRIFFTYVMGWYRQAPGKEREFVAAITFSDGTTYYADSVKGRFTISRDNAKNTVYLQMNSLKPEDTAVYYCNTDSFYGFVYPWTISSEVDYWGQGTQVTVSS | low polyreactivity
5 | QVQLVESGGGLVQAGGSLRLSCAASGRIFVGYAMGWYRQAPGKVREFFAAITWSGGSTSYADSVKGRFTISRDNAKNTVYLQKNSLKPEDTAVYYCNARRYYYFGLSLYEYDYWGQGTQVTVSS | low polyreactivity
6 | QVQLVESAGGLVQAGGSLRLSCAASGRTSVIYAMGWYRQAPGKERELVASIRRGGSTSYADSVKGRFTISRDNAKNTVYLQMNSLKPEDTAVYYCARETLGGTYLGDYWGQGTQVTVSS | high polyreactivity
7 | QVQLEESGGGLVQAGGSLRLSCAATGFIFRGYAMGWYRPAPGKERELVAAITSSGGDTYYADSVKGRFTISRDNAKNTVYLQMNSLKPEDTAVYYCNARDYASGTEGDYWGQGTQVTVSS | low polyreactivity
8 | QVQLVESGGGLVQAGGSLRLSCAASGRTYSRNAMGWYRQAPGKERELVATISRGGGITFYADSVKGRFTISRDNAKNTVYLQMNSLKPEDTAVYYCAAQYYYWTRRPGDYWGQGTQVTVSS | high polyreactivity
9 | QVHLVESGGGLVQAGGSLRLSCAAYGRSFSSNAMGWYGQAPGKERELVAAISSSGAGTYYADSVKGRFTISRDNAKNTVYLQMNRLKPEDTAVYYCAARANSYHSFTSHYDYWGQGTQVTLSS | low polyreactivity
10 | QVQLVESGGGLVQAGGSLRLSCAATGSIFRYNTMGWYRQAPGKERELVATITRRGGSTYYADSVKGRITISRDNAKNTVYLQMNSLKPVDTAVYYCNDDNFGGPYNYWGQGTQVTVSS | low polyreactivity
11 | QVQLVESGGGLVQAGGSLRLSCAASGLIFYRYAMGTTRQAPGKERELVATISGGGRTYYADSVKGRFTISRDNAKNTVYLQMNSLKPEDTAVYYCNADRQWYSIGSWEYDYWGQGTQVTVSS | high polyreactivity
12 | QVQLVESGGGLVQAGGSLRLSSAASGSIFGPYAMGWYRQAPGKERELVAAITWTGGRTYYADSVKGRFTISRDNAKKTVYLQMHSLKPEDTAVDYCAADYSPSTWYLYYTLYYYWGQGTQVTVSS | low polyreactivity
13 | QVQLVESGGGLVQAGGSLRLSCAASGSIITWNAMGWYRQAPGKERELVAAIDWDGGSTYYADSVKGRFTISRDNAKNTVYLQMNSLKPEDTAVYYCAATYGWYTGRYPSGHYYYWGQGTQVTVSS | low polyreactivity
14 | QVQLVESGGGLVQAGGSLRLSCAASGRIFQNYAMGWYRQAHGKERELVATISSGVSTYYADSVKGRFTISRDNAKNTVYLQMNSLKPEDTAVNYCAAYVPWFEMDYWGQGTQVTVSS | low polyreactivity
15 | QVQLVDSGGGLVQAGGSLRLSCAASGRIFYYYAMGWYRQAPGKERELVAAISWNGGTTYYAESVKGRFTISRDNAKNTVYLQINSLKPEDTAVYYCNAVLYRGPPGSRMDYWGQGTQVTVSS | high polyreactivity
16 | QVQLVESGGGLVQAGGSLRLSCAASGSIFKYYAMGWYRQAPGKERELVAAISSSGGSTYYADSVKWRFTISRDNAKNTVYLQMNSLKPEDTAVYYCNTPYIWKNYDYWGQGTQVTVSS | high polyreactivity
17 | QVQLGESGGGLVQAGGSLRLSCAASGLILYGYAMGLYRPAPGKERELVATITIGGSTYYADSVKGRFTISRDNAKNTVYLQMNRLNPEDTAVYYCAAEDTLAGSVARFGEYDYWGQGSQVTVSS | low polyreactivity
18 | QVQLVESGGGLVQAGGSLRLSCAASGRIFDDYDMGWYRQAPGKERELVAAISFDGGNTYADSVKGRFTISRDNAKNTVYLQMNSLKPEDTAVYYCARDDTSPGYGDQSSNAAYYYWGQGTQVTVSS | low polyreactivity
19 | QVQHVESGGGLVQAGGSLRLSCAASGGTFGSNTMGWYRQARGKERELVAAITSGVSTYYADSVKGRFTISRDNAKNTVYLQMNSLKPEDTAVFYCAADTTQVQGVEGDYWGQGTQVTVSS | low polyreactivity
20 | QVQLVESAGGLDQAGGSLRLSCAASGFTFSVYVMGWYRQAPGKERELVASISKRGGSTTYADSVKGRFTISRDNAKNTVYLQMNSLKPEDTAVYYCAALGPGYYWGQGTQVTVSS | high polyreactivity
21 | QVQLVESGGGLVQAGGSLRLSCAASGRIFTRYAMGWYRQAPGKERELVATITKSGGSTYYADSVKGRFTISRDNAKNTVYLQMNSLKPEDTAVYYFAADSWWTYQYDYWGQGTQVTVSS | low polyreactivity
22 | QDQLVESGGGLVQAGGSLRLSCAASGITFFYYAMGWYRQAPGKERELVAAINWSGRTYYADSVKGRFTISRDNAKNTVYLQINSLKPEDTAVYYCAAVTYGPGVSVMDYWGQGTQVTVSS | low polyreactivity

Row | Sequence | polyreactivity (PSR sort gate)
23 | QVQLVESGGGLVQAGGSLRLSCAASGGIFLVYAMGWYRQAPGKERELVAAITPGGSTYYADSVKGRFTISRDNAKNTVYLQMNSLKPEDTAVYYCAKALYRREYSSGGYYRFDYWGQGTQVTVSS | high polyreactivity
24 | QVQLVESGGGLVQAGGSLRLRCAASGRIFRPYTMGWYRQAPGKERELVAAITSGSSTNYADSVKGRFTISRDNAKNTVYLQMNSLKPEDTAVYYCAVKVRIFASYYPFYYWGQGTQVTVSS | high polyreactivity
25 | QVQLVESGGGLVQAGGSLRLSCAASGFTIRRNAMGWYRQAPGKERELVAAISRSGGSTYADSVKGRFTISRDNAKNTVYLQMNSLKPEDTAVYYFASDHSYYRYTYTALIAEFYYWGQGTQVTVSS | low polyreactivity
26 | QVQLVESGGGLVQAGGSLRLSCAASGSTFKGNAMGWYRQAPGKERELVAAINRSGTSTYYADSVKGRFTISRDNAKNTVYLQMNSLKPEDTAVYYCAADKAPYSTEGDSWGQGTQVTVSS | high polyreactivity
27 | QVQLVESGGGLVQAGGSLRLSCADSGLILYTYAMGWYRQAPGKERELVAAIDWGDGDTYYADSVKGRFTISRDNAKNTVYLQMNSLKPEDTAVYYCAADLVGYSGYYFDEEYYWGQGTQVTVSS | high polyreactivity
28 | QVQLVESGGGLVQAGGSLRLSCAASGSTFGSYAMGWYRQAPGKEREFVATINTSNDRTYYADSVKGRFTISRDKAKNTVYLQMNSLKPEDTAVYYSNVLVYNVHTRGYWGQGTQVTVSS | high polyreactivity
29 | QVQLVESGGGLVQAGGSLRLSCAASGRIFYYNAMGWYRQAPGKERELVAAITSGGSTNYADSVKGRFTISRDNAKNTVYLQMNSLNPEDTAVYYCAADYYYYVAGVHYDYWGQGTLVTVSS | low polyreactivity
30 | QVQLVESGGGLVQAGGSLRLSCAASGRTIPHNAMGWYRQAPGKERQLVATITAGSGSTYYADSVKGRFTISRDNAKNTVSLQLNSLKPEDTAVYYCNAKWTLYQSDYWYYIYDYWGQGTQVTVSS | low polyreactivity
31 | QVQLVESGGGLVQAGGSLRLSCAASGLIFSHNVMGWYRQAPGKERELVAAISKGGGSTYYADSVKGRFTISRDNAKNTVYLQLNSLIPEDTAVYYCAAPYWSKYRQTEYDYWGQGTQVTVSS | high polyreactivity
32 | QVQLVESGGGLVQAGGSLRLSCAASGRTFEGNAMGWDRQAPGKERELVAALTYPGGDTHYADSVKGRCTISRDNPKNTVYLQMTSLKPEDTAGYYCAADWGWPHTDSMDYWGQGTQVTVSS | low polyreactivity
33 | QVQLVESGGGLVQAGGSLRLSCAASGFIFSAYVMGWYRQAPGKERELVAAISQSGARTYYADSVKGRFTISRDNAKNTVYLQMNSLKPEDTAVYYCAADRRDFRTYDYWGQGTQVTVSS | high polyreactivity
34 | QVQLVESAGGLGQAGGSLRLSCAASGRIIVRNTMGWYRQAPGKDRELVARITGRGGTTYYADSVKGRFTISRDYAKNPVYFQMNSLKPEDTADYYCKAGKYLRLDPVGPNYSRKYGYWGQGTQVTVSS | low polyreactivity
35 | QVQLVESVGGLVQAGGSLPLTCAASGYTIGPNVMGWYRQAPGKERELVASITSGTSTYYADSVKGRFTISRDNAKNTVYLQMNSLKPEDTAVYYCAAKYSFGRTRWYGYWGQGTQVTVSS | high polyreactivity
36 | QVQLVESGGGLVQAGGSLRLSCAASGSIFDVNAMGWSRQPPGKERELVAVISSSDSTDYADSVKGRFTISRDNAKNTVYLQMNSLKPEDTAVYYCAADEYQDRPDDYWGQGTQVTVSS | low polyreactivity
37 | QVQLVESGGGLVQAGGSLRLSCAASGRIFERNAMGWYRQAPGKERELVAAITYNGGRTYYAVSVKGRFTISRDNAKNTVYLQINSQKPEDTAVYYYNAQSRVTRSSYRGSPRYDYWGQGTQVTVSS | high polyreactivity
38 | QVQLVESGGGLVQAGGSLRLSCADSGSTFNSYAMGWYRQAPGKERELVAAITHRGSTYYADSVKGRFTISLDNAKNTVYLQMNSLKPEDTAVDYCNVRRIGNGRRVDYWGQGTQVTVSS | high polyreactivity
39 | QVQLVESGGGLVQAGASLRLSCAASGFNFDTNTIGWYRQAPGKERELVAVITRRGGRTYDADSVKGRFTISRDNAKNRVYLQMNSLKPVDTAVYYFNSVSYGQYGWGEGTQVTVSS | high polyreactivity
40 | QVQLVDSGGGLDQAGGSLRLSCSASGIIFRGNAMGWYRQAPGKEREFVAAIALRGSRSYYADSVKGRFTISRDNAKNTVYLQMISLKPEDTAVYYCAARYYSEPNAYYYWGQGTQLTVSS | high polyreactivity
41 | QVQLVDSGAGLVQAGGSLSLTCAASGYTFYANAMGWYRQAPGKERELVAGINRSGSTYYADSVKGRFTISRDNAKNTVYLQMNSLKPEDTAVYYCATAWHRGVRGRTSGAFDYWGQGTQVTVSS | high polyreactivity
42 | QVQLVESGGGFVQAGGSLRLSCAASGFIFDTYAMGWYRQAPGKERELVAAITTTGGSTYYADSVKGRFTISRDTAKNTVYLQMNSLKPEDTAVYYCAARHYRIHYDYWGQGSQVTVSS | high polyreactivity
43 | QVQLVESAAGLVQAGGSLRLSCAASGRTFQYNAIGWYRQAPGKETELVAAISSSGGSTYYADSVKGRFTISRDNAKNTVYLQLNSLKPEDTAVYYCNAYSQSWNFYGDGDYWGQGTQVTVSS | low polyreactivity
